Patent US20020182172A1, “Water-soluble polymer conjugates of triazine derivatives” (Shearwater Corporation, priority 2000, published 2002)

Assay: Stability study in D2O (formaldehyde release monitored by NMR; MALDI-TOF of hydrolyzed product)
Procedure: Compound III, V, and XIV (6 mg) were separately dissolved in 0.75 ml of D2O and stored at 37° C. The methylene peak disappearance as well as methyl peak shift were monitored by 300 MHz NMR over time. The half-life of the formaldehyde release reaction was monitored using first order kinetics.

Substance | half-life (t1/2) of the formaldehyde release reaction [h] | dimerization (MALDI-TOF spectrum of hydrolyzed compound) (after hydrolysis in D2O at 37° C.)
2-mPEGyloxy5k-4,6-di-(N-methyl-N-hydroxymethylamino)-1,3,5-triazine [Compound III] | 81 | 
2-mPEGyloxy350-4,6-di-(N-methyl-N-hydroxymethylamino)-1,3,5-triazine [V] | 81 | no detectable dimerization
